The DeepSol protein solubility set

experiment: soluble on expression in E. coli; label from the status in PepcDB or PDB records

| Sequence | soluble on expression in E. coli |
| --- | --- |
| MSLSTTPGLYAVIKLTHLYLPGTLKIHHLKGQLLDQFSIGEMEYQHQGTKIKIFNLAVNWRFSSLLHKKLPIDSMSAEMIEINQKTPMLILKNIKLSGYLNQQSIKLNTLQFNYWNQLITSQLELSNSFPHVFSGKIRLNPHSTNKNIFSGGVDIGGNRNQIQWGGEFEGPGKITINGSLQQLKQIKQIIKWRDLHWQDNKNHNLKSSQGRIEVSGTIPNLAIDLKSKLGIDQLKNWQMNAAIKGKLPWQWNINATFSQPLDFSSKLDGLYTKFALKMETKNDHHADFLITIAPGHYQMTENNLMPLIQFTGGNIKGSLSQKQFSGQGVLFLDAYKKVNFNFKFPEFNVYQDIAQQTIDAKLSILFNSLDFLQNASPYLINPKGQFLASIHAKGTLNKPIIESKLALNKGSFNIPALGLNITDMVLAVFSKKDGWEATGSIHSSEKKLTLKGQGIFNKELGGTVSIEGSNFPIANNKEFQVNISPQLQVRFTPSLCQITGTIQIPNAHIKPQTFTNSLVATDDIVFTSKNTQPITPLFNTNMSVRVEMGEEVELTFKGLHAYLAGIVTINQLSQGPITANGELTVRKGEYKAYGQDLSIEQGQLIFTGGRIDNPEINLRASKNISNSFGSVSGSSELFNFNNYNNLNVGNNFNVGVEVAGRLQSPKIQLFSNPPTLSQADILSFLVIGRPANQADKAKGQLLLTAISSMNLGTGTNGTQLLEQLKQKLGFDFNVQTTTNFNQQTNKISESTGVVVGKSLSDRIYLSYNVGLSQTDPNVLTLKYILNKFLSIQVSSSDSGNGVDILYTKSTSSPEEGHHHHHH | not soluble |
| MSLAEFIYTMKKVRKAHGDKVILDDVTLSFYPGAKIGVVGPNGAGKSSVLRIMAGLDKPNNGDAFLATGATVGILQQEPPLNEDKTVRGNVEEGMGDIKIKLDRFNEVAELMATDYTDELMEEMGRLQEELDHADAWDLDAQLEQAMDALRCPPADEPVTNLSGGERRRVALCKLLLSKPDLLLLDEPTNHLDAESVQWLEQHLASYPGAILAVTHDRYFLDNVAEWILELDRGRAYPYEGNYSTYLEKKAERLAVQGRKDAKLQKRLTEELAWVRSGAKARQAKSKARLQRYEEMAAEAEKTRKLDFEEIQIPVGPRLGNVVVEVDHLDKGYDGRALIKDLSFSLPRNGIVGVIGPNGVGKTTLFKTIVGLETPDSGSVKVGETVKLSYVDQARAGIDPRKTVWEVVSDGLDYIQVGQTEVPSRAYVSAFGFKGPDQQKPAGVLSGGERNRLNLALTLKQGGNLILLDEPTNDLDVETLGSLENALLNFPGCAVVISHDRWFLDRTCTHILAWEGDDDNEGHHHHHH | not soluble |
| MSLRTLPAIVMMTLYALAGLAHAQQPPWRVGFCQDTLDIPWRAAQAMTFSQTLQTDKRFQVILSDAKGNTTQQAIDLEHMVERGVHVLVTSPRDGAVLTPVISNIYRQGVPVVLLSRRTLDENFTTFIAPDDAEIGRQAARYLSKRLNEKGKILVIQGLGSASTTQQRTVGFIQELSLHPHMQIVAQPFANYKKEMAILIMESILAQKLPFDAIYVHSDAMALGAILALKRAGIDPTKLPIVSIDYTRAGRESLRKGEIDAIFTYPNGVKQGITAVKRILAGQPVNKFQTVPSTLVTQENINTLEPVEGHHHHHH | soluble |
| MPGFAIGQTAYVVKTDSYRLLWDCITYLDETTIAKIKELGGLDAIALSHPHYYSTQVEWAETFDVPIYIHEDDKEWVMRPSSRIIYWSGESLQLADGITIHRLGGHFSGGSVLHWEEGNDGKGILLTGDIIQVVADERWVSFMYSYPNLIPLPARKVEEMVNRVKPLQFNRLYNAFHRVVKLEHHHHHH | soluble |
| MPHVLVLNASYEPLGVVPLRRALVLVLENKAVCLEESGAFMHSATVTVPAPSVVRLKRFVRVPYRGPVPLTRRALFARDGGRCMYCGGVATSVDHVIPRSRGGQHAWDNVVASCRRCNHVKADRHLFEIGWRLRHKPAPPTGLAWRIIGTGHRDPRWLPYLQPYGADDAMARIDGISAAAALEHHHHHH | not soluble |
| MIEIKNLTLQRGLKVLLDKANATVNPGQRVGLIGKNGTGKSSLFALIKGEITQDGGDVSIPKNWRLASVSQETPDLDISALDYVLQGDAELQAFQTALRQAEAQNDGMKQAEYHAKLEE | not soluble |
| MSNYVIQADQQLLDALRAHYEGALSDRLPAGALFAVKRPDVVITAYRSGKVLFQGKAAEQEAAKWISGASASNETADHQPSALAAHQLGSLSAIGSDEVGTGDYFGPIVVAAAYVDRPHIAKIAALGVKDSKQLNDEAIKRIAPAIMETVPHAVTVLDNPQYNRWQRSGMPQTKMKALLHNRTLVKLVDAIAPAEPEAIIIDEFLKRDSYFRYLSDEDRIIRERVHCLPKAESVHVSVAAASIIARYVFLEEMEQLSRAVGLLLPKGAGAIVDEAAARIIRARGEEMLETCAKLHFANTKKALAIAKRRK | soluble |
